Reference: patent publication US7166472B2, “Method for the identification of agents that inhibit or promote cataracts and uses thereof” (The General Hospital Corporation, priority 2000, dated 2007)

Legend:
[1] = Metal reduction capacity of tanned calf lens α-crystallin, Cu(II); assay type: biochemical; details: α-crystallin preparation 100 μg/ml, Cu(II)-glycine 25 μM, one hour 37° C.
Procedure: (§1) Studies of Tanned Calf Lens Crystalin in Assay of Crystallin Protein for Metal Reduction Capacity—α-Crystallin (10 mg/ml) from calf lens was modified by reaction with 3-HK (100 μM), 3-HAA (100 μM), or ASC (100 μM) in PBS, ph 7.4, for 12 hours at 4° C. in the dark. Control samples were incubated with ascorbic acid (100 μM) or without added reductant. The tanning incubation solutions also contained triethylenetetramine (TETA, 200 μM) to prevent cross-linking of the protein. After incubation, free reductant was removed from the tanned α-crystallin preparations by exhaustive dialysis at 4EC in the dark utilizing PBS, pH 7.4, containing CHELEX™ 100 chelating ion exchange resin (BioRad, Hercules, Calif.). The various modified α-crystallin preparations (100 μg/ml) were co-incubated with either Cu(II)-glycine glycine (25 μM) or Fe(III)-citrate (25 μM) for one hour at 37° C. and assayed for metal reduction capacity using the BC and BP spectrophotometric assay as detailed above. Incubated and dialyzed α-crystallin (100 μg/ml) and untreated α-crystallin (100 μg/ml) preparations were used for procedural control.
(§2) 3-HK: α-crystallin reduced nearly 100% of the available Cu(II) and approximately 20% of the available Fe(III). 3-HAA: α-crystallin reduced approximately 65% of the available Cu(II).

[2] = Metal reduction capacity of tanned calf lens α-crystallin, Fe(III); assay type: biochemical; details: α-crystallin preparation 100 μg/ml, Fe(III)-citrate 25 μM, one hour 37° C.
Procedure: as §1, §2

Row | Molecule | reduction of available Cu(II) [1] | reduction of available Fe(III) [2]
1 | α-Crystallin: unmodified α-crystallin from calf lens, procedural control (protein, UniProt P02470 1-173; P02510 1-175, looked up) Alpha-crystallin A chain: MDIAIQHPWFKRTLGPFYPSRLFDQFFGEGLFEYDLLPFLSSTISPYYRQSLFRTVLDSGISEVRSDRDKFVIFLDVKHFSPEDLTVKVQEDFVEIHGKHNERQDDHGYISREFHRRYRLPSNVDQSALSCSLSADGMLTFSGPKIPSGVDAGHSERAIPVSREEKPSSAPSS Alpha-crystallin B chain: MDIAIHHPWIRRPFFPFHSPSRLFDQFFGEHLLESDLFPASTSLSPFYLRPPSFLRAPSWIDTGLSEMRLEKDRFSVNLDVKHFSPEELKVKVLGDVIEVHGKHEERQDEHGFISREFHRKYRIPADVDPLAITSSLSSDGVLTVNGPRKQASGPERTIPITREEKPAVTAAPKK | approximately 35% | negligible percentage
2 | 3-HK: α-crystallin: calf lens α-crystallin modified (tanned) by reaction with 3-HK, free metabolite removed by dialysis (protein, UniProt P02470 1-173; P02510 1-175, looked up, modified with 3-hydroxykynurenine, calf lens α-crystallin modified (tanned) by reaction with 3-HK, free metabolite removed by dialysis) Alpha-crystallin A chain: MDIAIQHPWFKRTLGPFYPSRLFDQFFGEGLFEYDLLPFLSSTISPYYRQSLFRTVLDSGISEVRSDRDKFVIFLDVKHFSPEDLTVKVQEDFVEIHGKHNERQDDHGYISREFHRRYRLPSNVDQSALSCSLSADGMLTFSGPKIPSGVDAGHSERAIPVSREEKPSSAPSS Alpha-crystallin B chain: MDIAIHHPWIRRPFFPFHSPSRLFDQFFGEHLLESDLFPASTSLSPFYLRPPSFLRAPSWIDTGLSEMRLEKDRFSVNLDVKHFSPEELKVKVLGDVIEVHGKHEERQDEHGFISREFHRKYRIPADVDPLAITSSLSSDGVLTVNGPRKQASGPERTIPITREEKPAVTAAPKK | ~100% | approximately 20%
